{
  "source": "patent US20260250338A1",
  "about": "(Molecular Partners, published 2026)",
  "binders": {"B1": {"name": "Construct No. 10 (SEQ ID NO: 16), 2D (CD16a × HER2), DARPin #3 with C-terminal HER2 binder of SEQ ID NO: 8 (designed binder)", "chain": "MRGSHHHHHHGSDLGKKLLQAARAGQLDEVRELLKAGADVNAKDEQGRTPLHIAAASGHLEIVEVLLKAGADVNAKDWFGITPLHIAAWWGHLEIVEVLLKAGADVNAKDQEGRTPLHIAAAIGHLEIVEVLLKAGADVNAQDKSGKTPADLAARAGHQDIAEVLQKAAGSPTPTPTTPTPTPTTPTPTPTGSDLGKKLLEAARAGQDDEVRELLKAGADVNAKDEYGLTPLYLATAHGHLEIVEVLLKAGADVNAVDAIGFTPLHLAAFIGHLEIAEVLLKAGADVNAQDKFGKTPADIAAGAGNEDIAEVLQKAA"}, "B2": {"name": "Construct No. 11 (SEQ ID NO: 18), 2D (CD16a × HER2), DARPin #1 with C-terminal HER2 binder of SEQ ID NO: 9 (designed binder)", "chain": "MRGSHHHHHHGSDLGKKLLQAARAGQLDEVRELLKAGADVNAKDWSGFTPLHIAAVQGHLEIVEVLLKAGADVNAKDHSGWTPLHVAAFSGHLEIVEVLLKAGADVNAKDATGQTPLHLAARTGHLEIVEVLLKAGADVNAQDKSGKTPADLAARAGHQDIAEVLQKAAGSPTPTPTTPTPTPTTPTPTPTGSDLGIKLLFAAAKGQDDEVRELLKAGADVNAKDFQGVTPLHIAAQSGHLEIVEVLLKAGADVNAKDVTGDTPLHLAAQHGHLEIVEVLLKAGADVNAQDERGWTPADLAADWGHEDIAEVLQKAA"}, "B3": {"name": "Construct No. 5 (SEQ ID NO: 11), 2D (HER2 × CD16a), DARPin #2 with N-terminal HER2 binder of SEQ ID NO: 9 (designed binder)", "chain": "MRGSHHHHHHGSDLGIKLLFAAAKGQDDEVRELLKAGADVNAKDFQGVTPLHIAAQSGHLEIVEVLLKAGADVNAKDVTGDTPLHLAAQHGHLEIVEVLLKAGADVNAQDERGWTPADLAADWGHEDIAEVLQKAAGSPTPTPTTPTPTPTTPTPTPTGSDLGQKLLRAAKKGQDDEVRELLKAGADVNAKDEQGWTPLHIAAWKGHLEIVEVLLKAGADVNAKDVFDWTPLHVAAHFGHLEIVEVLLKAGADVNAQDRAGETPADLAAQAGHEDIAEVLQKAA", "notes": "Bispecific DARPin; also called Construct 5"}, "B4": {"name": "Construct No. 6 (SEQ ID NO: 17), 2D (CD16a × HER2), DARPin #3 with C-terminal HER2 binder of SEQ ID NO: 9 (designed binder)", "chain": "MRGSHHHHHHGSDLGKKLLQAARAGQLDEVRELLKAGADVNAKDEQGRTPLHIAAASGHLEIVEVLLKAGADVNAKDWFGITPLHIAAWWGHLEIVEVLLKAGADVNAKDQEGRTPLHIAAAIGHLEIVEVLLKAGADVNAQDKSGKTPADLAARAGHQDIAEVLQKAAGSPTPTPTTPTPTPTTPTPTPTGSDLGIKLLFAAAKGQDDEVRELLKAGADVNAKDFQGVTPLHIAAQSGHLEIVEVLLKAGADVNAKDVTGDTPLHLAAQHGHLEIVEVLLKAGADVNAQDERGWTPADLAADWGHEDIAEVLQKAA", "notes": "Bispecific DARPin; also called Construct 6"}, "B5": {"name": "Construct No. 8 (SEQ ID NO: 12), 2D (CD16a × HER2), DARPin #2 with C-terminal HER2 binder of SEQ ID NO: 8 (designed binder)", "chain": "MRGSHHHHHHGSDLGQKLLRAAKKGQDDEVRELLKAGADVNAKDEQGWTPLHIAAWKGHLEIVEVLLKAGADVNAKDVFDWTPLHVAAHFGHLEIVEVLLKAGADVNAQDRAGETPADLAAQAGHEDIAEVLQKAAGSPTPTPTTPTPTPTTPTPTPTGSDLGKKLLEAARAGQDDEVRELLKAGADVNAKDEYGLTPLYLATAHGHLEIVEVLLKAGADVNAVDAIGFTPLHLAAFIGHLEIAEVLLKAGADVNAQDKFGKTPADIAAGAGNEDIAEVLQKAA", "notes": "Bispecific DARPin; also called Construct 8"}},
  "data": [
    {"biological_target": "CD16aV allotype of human CD16a expressed on Jurkat-Lucia-NFAT-CD16 Reporter cells (InvivoGen) (human, UniProt P08637 17-254)", "sequence (P08637 17-254 F176V)": "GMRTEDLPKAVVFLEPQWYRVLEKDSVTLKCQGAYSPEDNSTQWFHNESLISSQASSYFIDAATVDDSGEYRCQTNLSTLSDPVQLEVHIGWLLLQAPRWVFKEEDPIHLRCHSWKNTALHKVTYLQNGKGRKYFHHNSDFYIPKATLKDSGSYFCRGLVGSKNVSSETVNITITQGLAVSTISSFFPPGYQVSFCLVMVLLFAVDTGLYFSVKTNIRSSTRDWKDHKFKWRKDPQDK", "assay": "cell-based or functional assay", "units": {"EC50 (pM), ADCC reporter assay (luminescence), SKOV3 target cells, E:T 5:1, 5 h": "pM"}, "values": [
      {"binder": "B1", "EC50 (pM), ADCC reporter assay (luminescence), SKOV3 target cells, E:T 5:1, 5 h": 24},
      {"binder": "B2", "EC50 (pM), ADCC reporter assay (luminescence), SKOV3 target cells, E:T 5:1, 5 h": 4.1},
      {"binder": "B3", "EC50 (pM), ADCC reporter assay (luminescence), SKOV3 target cells, E:T 5:1, 5 h": 0.39},
      {"binder": "B4", "EC50 (pM), ADCC reporter assay (luminescence), SKOV3 target cells, E:T 5:1, 5 h": 3.5},
      {"binder": "B5", "EC50 (pM), ADCC reporter assay (luminescence), SKOV3 target cells, E:T 5:1, 5 h": 0.24}
    ]},
    {"biological_target": "T1, full length human CD16b stably expressed on transduced WT Jurkat cells (human, UniProt O75015 17-200)", "T1 construct": "whole, on cells; also called CD16b expressing cells; Jurkat CD16b", "T1 sequence (O75015 17-200)": "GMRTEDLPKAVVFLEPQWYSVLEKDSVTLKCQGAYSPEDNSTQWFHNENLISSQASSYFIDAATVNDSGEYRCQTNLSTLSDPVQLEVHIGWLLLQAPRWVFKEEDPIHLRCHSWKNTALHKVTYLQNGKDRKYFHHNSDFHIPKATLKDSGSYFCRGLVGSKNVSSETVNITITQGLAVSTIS", "assay": "flow cytometry on Jurkat-CD16b cells, serial dilutions, detection with Penta-His Alexa Fluor 647", "values": [
      {"binder": "B3", "binding result": "no binding (tested: 1000 nM)"},
      {"binder": "B4", "binding result": "no binding (tested: 1000 nM)"}
    ]},
    {"biological_target": "T2, CD32a expressed on Jurkat-NFAT-CD32a reporter cells (Invivogen jktl-nfat-cd32) (UniProt P12318 34-317, limits assumed)", "T2 construct": "whole, on cells; also called Jurkat-Lucia NFAT-CD32a Reporter cells; Fc receptor CD32a", "T2 sequence (looked up)": "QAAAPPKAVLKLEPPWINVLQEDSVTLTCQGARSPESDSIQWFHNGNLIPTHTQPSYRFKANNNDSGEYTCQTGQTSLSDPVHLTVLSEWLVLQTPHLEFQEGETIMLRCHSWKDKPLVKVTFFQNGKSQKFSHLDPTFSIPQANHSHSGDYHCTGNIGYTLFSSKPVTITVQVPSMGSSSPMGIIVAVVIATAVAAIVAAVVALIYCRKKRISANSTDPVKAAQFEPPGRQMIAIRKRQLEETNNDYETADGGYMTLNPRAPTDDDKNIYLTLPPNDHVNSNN", "assay": "flow cytometry on Jurkat-NFAT-CD32a cells, 4-fold serial dilutions, detection with anti-DARPin 1.1.1 antibody", "protocol": "Serial dilutions (4-fold) of the constructs were incubated 30 min at 4° C. with 50000 cells in a 96-well plate. Detection antibody (anti-DARPin 1.1.1 Alexa Fluor […]) was subsequently added to the wells (2 μg/ml diluted in FACS buffer) and incubated at 4° C. for 30 min. Cold buffer was added, then cells were spun down prior to supernatant removal. Cells were then fixed with Cell fix buffer (BD) and signal was measured by flow cytometry.", "values": [
      {"binder": "B3", "binding result": "no binding (tested: 400 nM)"},
      {"binder": "B5", "binding result": "no binding (tested: 400 nM)"}
    ]}
  ]
}
